Results from article PMC9992711, “Two-step structural changes in M3 muscarinic receptor activation rely on the coupled Gq protein cycle” (Nature Communications, 2023).
pEC50: −log10 of the molar value.

Experiments:
[1] = target: T1, human M3 muscarinic receptor (hM3R) (Homo sapiens, UniProt P20309, DEL271-484); assay: intramolecular receptor FRET in HEK293T cells, concentration-response; assay type: cell-based
T1 construct: gene CHRM3; hM3R-YFP-CFP (EYFP replaces segment between Ala270 and Lys485 in ICL3; Cerulean at C-terminus)

[2] = target: T2, mouse M1 muscarinic receptor (mM1R) (Mus musculus, UniProt P12657); assay: receptor FRET and RFP-PH translocation in HEK293T cells; assay type: cell-based
T2 construct: gene Chrm1; mM1R-YFP-CFP; wild-type mM1R
T2 sequence (P12657 1-460): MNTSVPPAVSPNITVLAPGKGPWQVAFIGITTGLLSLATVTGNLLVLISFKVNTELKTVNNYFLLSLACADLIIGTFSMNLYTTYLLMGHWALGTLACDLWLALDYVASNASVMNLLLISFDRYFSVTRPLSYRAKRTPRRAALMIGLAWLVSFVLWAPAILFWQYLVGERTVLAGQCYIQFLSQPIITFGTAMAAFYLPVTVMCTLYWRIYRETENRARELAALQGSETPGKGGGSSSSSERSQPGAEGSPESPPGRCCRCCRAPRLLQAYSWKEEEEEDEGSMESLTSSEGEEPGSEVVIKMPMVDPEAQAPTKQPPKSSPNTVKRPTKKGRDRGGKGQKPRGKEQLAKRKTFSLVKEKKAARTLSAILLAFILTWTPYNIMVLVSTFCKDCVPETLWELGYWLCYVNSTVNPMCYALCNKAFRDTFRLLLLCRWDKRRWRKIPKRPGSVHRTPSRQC

hM3R-Cerulean (human) [3] = target: hM3R-Cerulean (human) (UniProt P20309); assay: FRET or BRET; CFP/YFP photometry on single live HEK293T (tsA-201) cells; labelled pair co-transfected with the remaining cognate G protein subunits (GRK2 too for Gαq-CFP with Gβ1-YFP); whole-cell patch, pipette with 0.1 mM GTP; 10 μM Oxo-M applied; room temperature
hM3R-Cerulean (human) [4] = target: hM3R-Cerulean (human) (UniProt P20309); assay: FRET or BRET; CFP/YFP photometry on single live HEK293T (tsA-201) cells; labelled pair with the remaining cognate G protein subunits co-transfected (GRK2 too for Gαq-CFP with Gβ1-YFP; only the two probes for hM3R-CFP with YFP-PLCβ1); 10 μM Oxo-M applied and washed out
[5] = target: hM3R-EYFP-Cerulean (human) (UniProt P20309)

Sequence of heterotrimeric Gq protein (P50148 whole entry, looked up, one chain of several): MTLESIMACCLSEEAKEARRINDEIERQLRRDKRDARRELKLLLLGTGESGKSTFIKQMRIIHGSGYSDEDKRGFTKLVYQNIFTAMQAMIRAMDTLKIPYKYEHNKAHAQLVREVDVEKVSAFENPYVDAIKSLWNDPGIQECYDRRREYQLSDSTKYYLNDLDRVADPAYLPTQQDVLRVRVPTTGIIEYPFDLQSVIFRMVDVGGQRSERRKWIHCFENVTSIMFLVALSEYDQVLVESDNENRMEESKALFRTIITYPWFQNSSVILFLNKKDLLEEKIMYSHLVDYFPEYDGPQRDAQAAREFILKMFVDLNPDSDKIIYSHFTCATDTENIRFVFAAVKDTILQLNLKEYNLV

In the case of `C[N+](C)(C)CC#CCN1CCCC1=O` [Oxo-M, oxotremorine-M], the pEC50 [1] was 6.95 and the “receptor FRET and RFP-PH translocation in HEK293T cells” value [2] was “wild-type mM1R or hM3R plasmid showed a strong translocation of RFP-PH from the plasma membrane to cytosol by Oxo-M”.
Work on “Gβγ subunits (bovine Gβ1-EYFP with Gγ2) (from UniProt P62871 1-340; P59768 1-71) (complex; other documents disagree on this pair)” yielded a time constant τ of the FRETr increase on Oxo-M (hM3R-Cerulean (human) [3]) of 0.23 s and a deactivation time constant τ of FRETr after Oxo-M washout (hM3R-Cerulean (human) [4]) of 0.53 s.
“heterotrimeric Gq protein (from UniProt P50148 1-359) (complex)” gave an intramolecular FRETr of hM3R-YFP-CFP, time constant τ of step 1 on Oxo-M, intact HEK293T cells [5] of 0.22 s.
